Source: paper PMC13286378, “The SPN-4 Rbfox RNA-binding protein selects maternal mRNAs for CCR4-NOT-dependent clearance in early Caenorhabditis elegans embryos”

B1: chs-1(40-79) (ssRNA)
RNA: AUUAGUAUUAUUAUUAUUGCAUGCUCUUACCUCAUCUCUC
B2: lin-41(995-1054) (ssRNA)
RNA: GUGCCCUAGCGCUAAAUAUUGUUUUAUUUUAAUGCAUGCUUCCUGCACGCCCCUCCCCCU
B3: lin-41(1023-1047) motif 1 (ssRNA)
RNA: UUAAUGCAUGCUUCCUACAAACCCC
B4: lin-41(1023-1047) motif 2 (ssRNA)
RNA: UUAAUACAAACUUCCUGCACGCCCC
B5: lin-41(1023-1047) (ssRNA)
RNA: UUAAUGCAUGCUUCCUGCACGCCCC
B6: chs-1(40-79) Rbfox mutant control (ssRNA)
RNA: AUUAGUAUUAUUAUUAUUACAAACUCUUACCUCAUCUCUC

Target: T1, SPN-4 RRM (3xFLAG::SPN-4 RRM::6xHis) (Caenorhabditis elegans, UniProt G5EF02 1-200)
T1 sequence: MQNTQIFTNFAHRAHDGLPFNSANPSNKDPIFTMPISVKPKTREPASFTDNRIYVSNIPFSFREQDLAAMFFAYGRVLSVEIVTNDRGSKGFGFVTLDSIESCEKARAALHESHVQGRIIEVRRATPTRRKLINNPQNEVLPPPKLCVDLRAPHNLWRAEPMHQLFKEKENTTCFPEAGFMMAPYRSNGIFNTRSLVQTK
Test: EMSA; 10 mM Tris-HCl pH 7.5, 150 mM NaCl, 0.001% NP-40, 10% glycerol, 0.01 mg/ml tRNA, 0.025% Tween-20; 32 nM RNA, 50 nM-2.9 uM protein; 15 min, room temperature; 8%
Settings: protein: recombinant; tags: N-terminal 3xFLAG (MBP removed by TEV), C-terminal 6xHis; label: 5' Cy5

Point of comparison: B5, Kd 285 ± 29.4 nM. Against it:
- B1 — 1.6-fold lower, 174 ± 13.5 nM
- B2 — within error, 308 ± 17.9 nM
- B3 — within 1.5-fold, 230 ± 8.1 nM
- B4 — 5.8-fold higher, 1640 ± 146 nM

Target: T1, SPN-4 RRM (3xFLAG::SPN-4 RRM::6xHis)
Test: EMSA; did not bind specifically; 10 mM Tris-HCl pH 7.5, 150 mM NaCl, 0.001% NP-40, 10% glycerol, 0.01 mg/ml tRNA, 0.025% Tween-20; 32 nM RNA, 50 nM-2.9 uM protein; 15 min, room temperature; 8%
Settings: protein: recombinant; tags: N-terminal 3xFLAG (MBP removed by TEV), C-terminal 6xHis; label: 5' Cy5

B6: no binding.
